# B1: IgG 15884 (anti-Nsp12) (antibody, V domains shown)
# VH: EVQLVESGGGLVQPGGSLRLSCAASGFNIYYYSMHWVRQAPGKGLEWVASIYSYYGYTSYADSVKGRFTISADTSKNTAYLQMNSLRAEDTAVYYCARHPAYGGMDYWGQGTLVTVSS
# VL: DIQMTQSPSSLSASVGDRVTITCRASQSVSSAVAWYQQKPGKAPKLLIYSASSLYSGVPSRFSGSRSGTDFTLTISSLQPEDFATYYCQQSHWHPITFGQGTKVEIK
# B2: IgG 15497 (anti-Nsp1) (antibody, V domains shown)
# VH: EVQLVESGGGLVQPGGSLRLSCAASGFNFSSSSIHWVRQAPGKGLEWVASISSSYGYTYYADSVKGRFTISADTSKNTAYLQMNSLRAEDTAVYYCARWAAMDYWGQGTLVTVSS
# VL: DIQMTQSPSSLSASVGDRVTITCRASQSVSSAVAWYQQKPGKAPKLLIYSASSLYSGVPSRFSGSRSGTDFTLTISSLQPEDFATYYCQQYYSLITFGQGTKVEIK
# B3: Fab 15497 (Fab-phage clone) (Fab, V domains shown)
# VH: B2 VH
# VL: B2 VL
# B4: Fab 15498 (Fab-phage clone) (Fab, V domains shown)
# VH: EVQLVESGGGLVQPGGSLRLSCAASGFNISSSSMHWVRQAPGKGLEWVAAVASFYGATYYADSVKGRFTISADTSKNTAYLQMNSLRAEDTAVYYCARAYHAGLDYWGQGTLVTVSS
# VL: DIQMTQSPSSLSASVGDRVTITCRASQSVSSAVAWYQQKPGKAPKLLIYSASSLYSGVPSRFSGSRSGTDFTLTISSLQPEDFATYYCQQWYYYSAAVTFGQGTKVEIK
# Assays:
# [1] = target: SARS-CoV-2 Nsp12 (recombinant) (SARS-CoV-2, reference, UniProt P0DTD1); experiment: western blot
# [2] = target: Nsp12 in SARS-CoV-2-infected VeroE6 cells (SARS-CoV-2 USA-WA1/2020, UniProt P0DTD1); experiment: immunostaining of cells or tissue
# [3] = target: Nsp1 in SARS-CoV-2-infected VeroE6 cells (SARS-CoV-2 USA-WA1/2020, UniProt P0DTD1); experiment: immunostaining of cells or tissue
# [4] = target: SARS-CoV-2 Nsp1, full-length protein (recombinant) (SARS-CoV-2, reference, UniProt P0DTD1); experiment: ELISA
binder,measurement,setting,value
B1,binding result,[1],binds
same,binding result,[2],binds
B2,binding result,[3],binds
B3,binding result,[4],binds
B4,binding result,[4],binds
